{"source": "paper PMC6627233", "about": "(The EMBO Journal, 2019)", "molecular_target": "Flag-tagged MAVS (UniProt Q7Z434 1-540)", "sequence (Q7Z434 whole entry)": "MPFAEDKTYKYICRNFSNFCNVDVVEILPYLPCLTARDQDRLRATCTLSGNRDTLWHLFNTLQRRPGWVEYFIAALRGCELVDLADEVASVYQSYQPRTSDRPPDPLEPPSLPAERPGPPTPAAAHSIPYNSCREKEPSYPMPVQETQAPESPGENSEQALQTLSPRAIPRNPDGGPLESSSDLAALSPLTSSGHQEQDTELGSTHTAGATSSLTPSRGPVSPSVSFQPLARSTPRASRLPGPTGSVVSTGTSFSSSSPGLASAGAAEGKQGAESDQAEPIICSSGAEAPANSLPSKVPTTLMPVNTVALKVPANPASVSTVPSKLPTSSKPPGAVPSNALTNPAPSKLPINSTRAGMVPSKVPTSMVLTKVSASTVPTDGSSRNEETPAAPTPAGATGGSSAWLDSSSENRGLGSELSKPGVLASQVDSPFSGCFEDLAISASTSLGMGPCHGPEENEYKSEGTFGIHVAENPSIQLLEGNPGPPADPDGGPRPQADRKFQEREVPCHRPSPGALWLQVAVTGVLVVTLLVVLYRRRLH", "experiment": "far-Western, overlay or dot blot"}
{"binder": "GST-tagged RNF34 (natural protein) MKAGATSMWASCCGLLNEVMGTGAVRGQQSAFAGATGPFRFTPNPEFSTYPPAATEGPNIVCKACGLSFSVFRKKHVCCDCKKDFCSVCSVLQENLRRCSTCHLLQETAFQRPQLMRLKVKDLRQYLILRNIPIDTCREKEDLVDLVLCHHGLGSEDDMDTSSLNSSRSQTSSFFTRSFFSNYTAPSATMSSFQGELMDGDQTSRSGVPAQVQSEITSANTEDDDDDDDEDDDDEEENAEDRNPGLSKERVRASLSDLSSLDDVEGMSVRQLKEILARNFVNYSGCCEKWELVEKVNRLYKENEENQKSYGERLQLQDEEDDSLCRICMDAVIDCVLLECGHMVTCTKCGKRMSECPICRQYVVRAVHVFKS", "values": [{"measurement": "binding result", "result": "binds"}]}
